Patent US20030211992A1 (published 2003)

Experiments:
human IGFBP-1 = target: T1, human IGFBP-1 (human, UniProt P08833 26-259); test: competitive phage ELISA
T1 construct: biotinylated in the ELISA formats; amine-coupled to the chip in peptide kinetics
T1 sequence (looked up): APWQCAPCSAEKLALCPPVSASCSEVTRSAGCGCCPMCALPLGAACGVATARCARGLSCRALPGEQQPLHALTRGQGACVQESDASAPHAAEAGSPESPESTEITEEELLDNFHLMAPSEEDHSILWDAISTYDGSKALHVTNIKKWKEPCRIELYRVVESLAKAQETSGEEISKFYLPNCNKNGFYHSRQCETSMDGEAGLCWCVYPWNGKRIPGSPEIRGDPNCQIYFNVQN

[1] = target: T2, recombinant human IGFBP-3 (human, UniProt P17936 28-291); test: competitive phage ELISA
T2 construct: biotinylated and held on a streptavidin chip in the ALS experiment
T2 sequence (P17936 28-291 limits assumed): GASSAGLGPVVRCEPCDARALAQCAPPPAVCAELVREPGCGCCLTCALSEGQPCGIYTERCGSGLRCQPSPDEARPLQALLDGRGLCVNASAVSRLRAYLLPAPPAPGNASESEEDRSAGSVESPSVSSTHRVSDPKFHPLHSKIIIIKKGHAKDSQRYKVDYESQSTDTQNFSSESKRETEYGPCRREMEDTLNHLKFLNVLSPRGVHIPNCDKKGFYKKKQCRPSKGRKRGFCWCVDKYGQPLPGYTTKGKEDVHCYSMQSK

Substance | IC50 (human IGFBP-1) | relative IC50 (mut/G1S-A70V) (human IGFBP-1) | IC50 [1] | relative IC50 (mut/G1S-A70V) [1]
D45A IGF-1 (G1S-A70V background) on phage (from UniProt P69168 267-424) (ligand) | 4.7 nM | 0.6 | 0.69 nM | 0.9
D53A IGF-1 (G1S-A70V background) on phage (from UniProt P69168 267-424) (ligand) | 15.3 nM | 1.9 | 1.05 nM | 1.2
E3A IGF-1 (G1S-A70V background) on phage (from UniProt P69168 267-424) (ligand) | 278 nM | 33.9 | 1.05 nM | 1.4
E9A IGF-1 (G1S-A70V background) on phage (from UniProt P69168 267-424) (ligand) | 8.6 nM | 1 | 1.32 nM | 1.8
E46A IGF-1 (G1S-A70V background) on phage (from UniProt P69168 267-424) (ligand) | 7.9 nM | 1 | 0.94 nM | 1.3
E58A IGF-1 (G1S-A70V background) on phage (from UniProt P69168 267-424) (ligand) | 11.9 nM | 1.5 | 1.03 nM | 1.4
F49A IGF-1 (G1S-A70V background) on phage (from UniProt P69168 267-424) (ligand) | > 1000 nM | > 100 | 2.72 nM | 3.6
G7A IGF-1 (G1S-A70V background) on phage (from UniProt P69168 267-424) (ligand) | > 1000 nM | > 100 | 4.58 nM | 6.1
G30A IGF-1 (G1S-A70V background) on phage (from UniProt P69168 267-424) (ligand) | 7.1 nM | 0.9 | 0.58 nM | 0.8
G32A IGF-1 (G1S-A70V background) on phage (from UniProt P69168 267-424) (ligand) | 10.9 nM | 1.3 | 0.76 nM | 1
G42A IGF-1 (G1S-A70V background) on phage (from UniProt P69168 267-424) (ligand) | 15.7 nM | 1.9 | 0.53 nM | 0.7
I43A IGF-1 (G1S-A70V background) on phage (from UniProt P69168 267-424) (ligand) | 31.3 nM | 3.8 | 1.17 nM | 1.6
K65A IGF-1 (G1S-A70V background) on phage (from UniProt P69168 267-424) (ligand) | 12.4 nM | 1.5 | 0.69 nM | 0.9
K68A IGF-1 (G1S-A70V background) on phage (from UniProt P69168 267-424) (ligand) | 10.5 nM | 1.3 | 0.76 nM | 1
L5A IGF-1 (G1S-A70V background) on phage (from UniProt P69168 267-424) (ligand) | 55.3 nM | 6.7 | 1.53 nM | 2
L54A IGF-1 (G1S-A70V background) on phage (from UniProt P69168 267-424) (ligand) | 23.1 nM | 2.8 | 1.83 nM | 2.4
L57A IGF-1 (G1S-A70V background) on phage (from UniProt P69168 267-424) (ligand) | 21.8 nM | 2.7 | 1.78 nM | 2.4
